{"source": "paper PMC8292422", "about": "(Nature Communications, 2021)", "key": {"[1]": {"target": "T1, AtRR1 (Agrobacterium fabrum, UniProt Q7CY46)", "T1 construct": "gene Atu1989; REC-domain-only response regulator, His6 tag, pET21b(+) with N-terminal T7 tag, E. coli BL21(DE3)", "T1 sequence (Q7CY46 1-151)": "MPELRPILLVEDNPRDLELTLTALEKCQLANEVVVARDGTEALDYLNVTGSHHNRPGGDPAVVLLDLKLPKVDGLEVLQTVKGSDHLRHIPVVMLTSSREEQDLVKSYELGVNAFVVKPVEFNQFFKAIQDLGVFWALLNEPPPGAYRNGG", "assay": "chemical phosphorylation, Phos-tag gel", "type": "biochemical", "details": "50 mM acetyl phosphate, 5 mM MgCl2, pH 7.8, 37 °C, 30 min"}, "[2]": {"target": "T2, DrBphP (Deinococcus radiodurans, UniProt Q9RZA4)", "T2 construct": "gene bphP; full length (755 residues), C-terminal His6 tag, pET21b(+), E. coli BL21(DE3), assembled with biliverdin", "T2 sequence (Q9RZA4 1-755)": "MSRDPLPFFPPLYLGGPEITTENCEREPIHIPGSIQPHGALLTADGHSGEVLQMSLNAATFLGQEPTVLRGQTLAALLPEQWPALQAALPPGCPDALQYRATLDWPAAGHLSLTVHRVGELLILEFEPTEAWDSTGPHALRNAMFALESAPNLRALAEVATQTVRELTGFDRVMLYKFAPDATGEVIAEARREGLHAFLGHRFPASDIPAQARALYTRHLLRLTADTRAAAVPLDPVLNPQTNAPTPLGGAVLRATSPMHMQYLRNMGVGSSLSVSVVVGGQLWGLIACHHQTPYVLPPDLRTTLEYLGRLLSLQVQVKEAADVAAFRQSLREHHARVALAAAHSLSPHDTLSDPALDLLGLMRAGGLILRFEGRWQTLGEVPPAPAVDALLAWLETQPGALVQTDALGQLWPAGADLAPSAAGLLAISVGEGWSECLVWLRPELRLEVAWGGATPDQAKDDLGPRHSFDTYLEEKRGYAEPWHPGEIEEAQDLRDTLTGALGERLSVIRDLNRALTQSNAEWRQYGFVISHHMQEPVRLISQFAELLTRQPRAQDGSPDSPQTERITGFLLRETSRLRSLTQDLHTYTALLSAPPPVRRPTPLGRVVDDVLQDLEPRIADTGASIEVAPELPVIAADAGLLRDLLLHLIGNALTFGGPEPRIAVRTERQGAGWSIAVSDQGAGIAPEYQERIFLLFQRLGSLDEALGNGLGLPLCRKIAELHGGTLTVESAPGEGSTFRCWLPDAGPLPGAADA", "assay": "Phos-tag gel, dephosphorylation of phospho-DrRR with and without ATP", "type": "biochemical", "details": "1 mM ATP, phospho-DrRR as substrate, 5 mM MgCl2, pH 7.8, 25 °C, dark or red light"}, "[3]": {"target": "T3, response regulator from Deinococcus radiodurans (DrRR) (Deinococcus radiodurans strain R1, UniProt Q9RZA5 1-149)", "T3 chain": "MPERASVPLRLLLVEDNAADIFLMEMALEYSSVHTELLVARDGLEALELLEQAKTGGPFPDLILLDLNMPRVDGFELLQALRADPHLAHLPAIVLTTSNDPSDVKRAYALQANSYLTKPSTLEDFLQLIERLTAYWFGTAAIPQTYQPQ", "assay": "SPR; dark (D), kinetic"}, "[4]": {"target": "T3, response regulator from Deinococcus …", "assay": "SPR; red light (R), kinetic"}, "[5]": {"target": "T3, response regulator from Deinococcus …", "assay": "SPR; dark (D), kinetic"}, "[6]": {"target": "T3, response regulator from Deinococcus …", "assay": "ITC; Tris pH 8.0"}, "[7]": {"target": "T3, response regulator from Deinococcus …", "assay": "SPR; red light (R), kinetic"}, "[8]": {"target": "T3, response regulator from Deinococcus …", "assay": "ITC; Ca2+ buffer"}, "[9]": {"target": "T3, response regulator from Deinococcus …", "assay": "ITC; dark (D), 30 mM Tris/HCl, pH 8.0"}, "[10]": {"target": "T3, response regulator from Deinococcus …", "assay": "ITC; 1 mM AMP-PNP"}, "[11]": {"target": "T4, bacteriophytochrome from Deinococcus radiodurans (DrBphP), wild type (Deinococcus radiodurans strain R1, UniProt Q9RZA4 1-755, biliverdin chromophore (molar excess of biliverdin hydrochloride added to the lysate; thioether linkage to the conserved cysteine within the PAS domain))", "T4 construct": "Pr (dark or far-red) and Pfr (red light) states are told apart by the assay; source: E. coli BL21 (DE3), purified (NiNTA, SEC)", "T4 sequence": "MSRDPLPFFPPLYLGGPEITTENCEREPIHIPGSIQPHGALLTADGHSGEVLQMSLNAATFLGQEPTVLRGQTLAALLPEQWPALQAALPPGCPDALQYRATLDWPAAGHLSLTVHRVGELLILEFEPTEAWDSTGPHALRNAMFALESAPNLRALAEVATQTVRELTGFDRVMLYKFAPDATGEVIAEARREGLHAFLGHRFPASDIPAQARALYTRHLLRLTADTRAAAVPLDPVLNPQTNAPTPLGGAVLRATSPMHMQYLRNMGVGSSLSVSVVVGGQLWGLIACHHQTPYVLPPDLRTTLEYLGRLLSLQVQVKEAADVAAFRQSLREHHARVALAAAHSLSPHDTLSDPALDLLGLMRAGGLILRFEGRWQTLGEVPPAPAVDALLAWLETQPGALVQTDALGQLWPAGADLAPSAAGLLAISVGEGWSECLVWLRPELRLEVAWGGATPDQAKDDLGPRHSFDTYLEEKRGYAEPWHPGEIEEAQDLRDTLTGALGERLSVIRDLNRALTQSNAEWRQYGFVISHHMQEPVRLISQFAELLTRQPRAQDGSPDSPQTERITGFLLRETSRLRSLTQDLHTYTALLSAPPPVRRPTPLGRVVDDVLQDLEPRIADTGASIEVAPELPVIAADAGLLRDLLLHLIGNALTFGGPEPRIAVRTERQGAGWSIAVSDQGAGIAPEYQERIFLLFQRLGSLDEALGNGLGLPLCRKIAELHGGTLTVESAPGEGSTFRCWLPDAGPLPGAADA", "assay": "SPR; Biacore X; response regulator coupled (EDC/NHS) on a carboxymethyldextran chip, phytochrome flowed after red light (655 nm, Pfr); 20 mM HEPES, 300 mM NaCl, 5 mM MgCl2, 0.10% Tween20, pH 7.5; room temperature; steady-state fit", "details": "both partners purified"}, "[12]": {"target": "T4, bacteriophytochrome from Deinococcus …", "assay": "ITC; MicroCal PEAQ-ITC; BphP (30-50 µM) in the cell in the Pr state (785 nm), RR (750-800 µM) in the syringe; 25 °C, dark; Tris/HCl pH 7.8, 5 mM MgCl2, 4 mM 2-mercaptoethanol, 5% ethylene glycol; single-site fit; also run with AMP-PNP or Ca2+ added", "details": "both partners purified"}, "[13]": {"target": "T5, DrBphP E536A variant (Deinococcus radiodurans strain R1, UniProt Q9RZA4 1-755, E536A, biliverdin chromophore (molar excess of biliverdin hydrochloride added to the lysate))", "T5 construct": "source: E. coli BL21 (DE3), purified (NiNTA, SEC)", "T5 sequence": "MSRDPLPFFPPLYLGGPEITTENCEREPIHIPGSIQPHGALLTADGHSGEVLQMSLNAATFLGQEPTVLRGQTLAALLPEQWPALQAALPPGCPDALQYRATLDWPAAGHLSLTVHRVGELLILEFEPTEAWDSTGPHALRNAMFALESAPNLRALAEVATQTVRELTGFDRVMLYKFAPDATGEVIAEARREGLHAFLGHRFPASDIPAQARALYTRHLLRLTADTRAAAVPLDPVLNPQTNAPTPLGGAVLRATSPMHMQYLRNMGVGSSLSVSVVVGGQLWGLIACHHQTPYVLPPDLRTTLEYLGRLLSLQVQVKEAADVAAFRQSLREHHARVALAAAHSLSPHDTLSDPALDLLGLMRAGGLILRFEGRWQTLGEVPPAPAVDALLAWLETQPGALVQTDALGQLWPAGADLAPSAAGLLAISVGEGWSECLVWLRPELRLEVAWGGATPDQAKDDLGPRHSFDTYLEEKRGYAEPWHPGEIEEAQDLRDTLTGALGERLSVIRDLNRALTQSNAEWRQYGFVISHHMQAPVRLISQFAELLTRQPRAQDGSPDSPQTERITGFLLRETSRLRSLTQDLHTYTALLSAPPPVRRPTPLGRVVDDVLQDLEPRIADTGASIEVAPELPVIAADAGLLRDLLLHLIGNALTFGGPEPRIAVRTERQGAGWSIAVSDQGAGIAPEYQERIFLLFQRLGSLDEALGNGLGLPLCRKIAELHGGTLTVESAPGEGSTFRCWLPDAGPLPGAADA", "assay": "ITC; MicroCal PEAQ-ITC; BphP (30-50 µM) in the cell in the Pr state (785 nm), RR (750-800 µM) in the syringe; 25 °C, dark; Tris/HCl pH 7.8, 5 mM MgCl2, 4 mM 2-mercaptoethanol, 5% ethylene glycol; single-site fit; also run with AMP-PNP or Ca2+ added", "details": "both partners purified"}, "[14]": {"target": "T4, bacteriophytochrome from Deinococcus …", "assay": "SPR; Biacore X; response regulator coupled (EDC/NHS) on a carboxymethyldextran chip, phytochrome flowed; dark (Pr, far-red 785 nm pre-illumination); 20 mM HEPES, 300 mM NaCl, 5 mM MgCl2, 0.10% Tween20, pH 7.5; room temperature; steady-state (Req) fit, 1:1 model", "details": "both partners purified"}, "[15]": {"target": "DrBphP E536A variant (Deinococcus radiodurans strain R1, UniProt Q9RZA4 1-755, E536A, biliverdin chromophore (molar excess of biliverdin hydrochloride added to the lysate))", "assay": "ITC"}, "[16]": {"target": "T4, bacteriophytochrome from Deinococcus …", "assay": "SPR; same sensorgrams as the dark steady-state SPR; 1:1 Langmuir kinetic fit of ka/kd; DrBphP 8-67 µM", "details": "both partners purified"}, "[17]": {"target": "the molecule itself", "assay": "SEC; EGFP-labeled response regulator alone; Superdex-200 Increase 3.2/300; 25 mM Tris/HCl pH 7.8, 5 mM MgCl2, 4 mM 2-mercaptoethanol, 5% ethylene glycol; 24 µl at 5 mg/ml; plotted at 280 nm"}}, "data": [{"molecule": "CC(=O)OP(=O)(O)O", "note": "[acetyl phosphate]", "values": [{"measurement": "chemical phosphorylation, Phos-tag gel", "setting": "[1]", "value": "whereas AtRR1 responded to the treatment weakly"}]}, {"molecule": "Nc1ncnc2c1ncn2[C@@H]1O[C@H](COP(=O)(O)OP(=O)(O)OP(=O)(O)O)[C@@H](O)[C@H]1O", "note": "[ATP]", "values": [{"measurement": "Phos-tag gel, dephosphorylation of phospho-DrRR with and without ATP", "setting": "[2]", "value": "the phosphatase activity in DrBphP depended on ATP addition"}]}, {"molecule": "bacteriophytochrome from Deinococcus radiodurans (DrBphP), wild type (enzyme, biliverdin chromophore (molar excess of biliverdin hydrochloride added to the lysate; thioether linkage to the conserved cysteine within the PAS domain)) MSRDPLPFFPPLYLGGPEITTENCEREPIHIPGSIQPHGALLTADGHSGEVLQMSLNAATFLGQEPTVLRGQTLAALLPEQWPALQAALPPGCPDALQYRATLDWPAAGHLSLTVHRVGELLILEFEPTEAWDSTGPHALRNAMFALESAPNLRALAEVATQTVRELTGFDRVMLYKFAPDATGEVIAEARREGLHAFLGHRFPASDIPAQARALYTRHLLRLTADTRAAAVPLDPVLNPQTNAPTPLGGAVLRATSPMHMQYLRNMGVGSSLSVSVVVGGQLWGLIACHHQTPYVLPPDLRTTLEYLGRLLSLQVQVKEAADVAAFRQSLREHHARVALAAAHSLSPHDTLSDPALDLLGLMRAGGLILRFEGRWQTLGEVPPAPAVDALLAWLETQPGALVQTDALGQLWPAGADLAPSAAGLLAISVGEGWSECLVWLRPELRLEVAWGGATPDQAKDDLGPRHSFDTYLEEKRGYAEPWHPGEIEEAQDLRDTLTGALGERLSVIRDLNRALTQSNAEWRQYGFVISHHMQEPVRLISQFAELLTRQPRAQDGSPDSPQTERITGFLLRETSRLRSLTQDLHTYTALLSAPPPVRRPTPLGRVVDDVLQDLEPRIADTGASIEVAPELPVIAADAGLLRDLLLHLIGNALTFGGPEPRIAVRTERQGAGWSIAVSDQGAGIAPEYQERIFLLFQRLGSLDEALGNGLGLPLCRKIAELHGGTLTVESAPGEGSTFRCWLPDAGPLPGAADA", "values": [{"measurement": "Kd", "setting": "[3]", "value": 6.2, "unit": "µM"}, {"measurement": "Kd", "setting": "[4]", "value": 15.5, "unit": "µM"}, {"measurement": "koff", "setting": "[5]", "value": 0.0046, "unit": "s⁻¹"}, {"measurement": "Kd", "setting": "[6]", "value": 35, "unit": "µM"}, {"measurement": "koff", "setting": "[7]", "value": 0.0065, "unit": "s⁻¹"}, {"measurement": "Kd", "setting": "[8]", "value": 2.8, "unit": "µM"}, {"measurement": "Kd", "setting": "[9]", "value": 35, "unit": "µM"}, {"measurement": "Kd", "setting": "[10]", "value": "~11", "unit": "µM"}]}, {"molecule": "response regulator from Deinococcus radiodurans (DrRR) (natural protein, consists only of a receiver (REC) domain; Forms dimers in the crystal (four monomers, two dimers in the asymmetric unit); also called Q9RZA5_DEIRA; source: E. coli BL21 (DE3), purified (NiNTA, SEC)) MPERASVPLRLLLVEDNAADIFLMEMALEYSSVHTELLVARDGLEALELLEQAKTGGPFPDLILLDLNMPRVDGFELLQALRADPHLAHLPAIVLTTSNDPSDVKRAYALQANSYLTKPSTLEDFLQLIERLTAYWFGTAAIPQTYQPQ", "values": [{"measurement": "Kd", "setting": "[11]", "value": "60 ± 7", "unit": "µM"}, {"measurement": "Kd", "setting": "[12]", "value": 8.1, "unit": "µM"}, {"measurement": "binding result", "setting": "[13]", "value": "binds"}, {"measurement": "Kd", "setting": "[14]", "value": "43 ± 8", "unit": "µM"}, {"measurement": "Kd", "setting": "[15]", "value": 13, "unit": "µM"}, {"measurement": "Kd", "setting": "[16]", "value": "~10", "unit": "µM"}]}, {"molecule": "EGFP-labeled AtRR1 (natural protein, also called EGFP-AtRR1; source: E. coli BL21 (DE3), purified (NiNTA, SEC)) MPELRPILLVEDNPRDLELTLTALEKCQLANEVVVARDGTEALDYLNVTGSHHNRPGGDPAVVLLDLKLPKVDGLEVLQTVKGSDHLRHIPVVMLTSSREEQDLVKSYELGVNAFVVKPVEFNQFFKAIQDLGVFWALLNE", "values": [{"measurement": "stoichiometry N", "setting": "[17]", "value": 2}]}]}
